Reference: IntAct's records for PubMed 19037309

B1: DELLA protein GAI (Arabidopsis thaliana (Mouse-ear cress)), Q9LQT8 (parent)
chain: MKRDHHHHHHQDKKTMMMNEEDDGNGMDELLAVLGYKVRSSEMADVAQKLEQLEVMMSNVQEDDLSQLATETVHYNPAELYTWLDSMLTDLNPPSSNAEYDLKAIPGDAILNQFAIDSASSSNQGGGGDTYTTNKRLKCSNGVVETTTATAESTRHVVLVDSQENGVRLVHALLACAEAVQKENLTVAEALVKQIGFLAVSQIGAMRKVATYFAEALARRIYRLSPSQSPIDHSLSDTLQMHFYETCPYLKFAHFTANQAILEAFQGKKRVHVIDFSMSQGLQWPALMQALALRPGGPPVFRLTGIGPPAPDNFDYLHEVGCKLAHLAEAIHVEFEYRGFVANTLADLDASMLELRPSEIESVAVNSVFELHKLLGRPGAIDKVLGVVNQIKPEIFTVVEQESNHNSPIFLDRFTESLHYYSTLFDSLEGVPSGQDKVMSEVYLGKQICNVVACDGPDRVERHETLSQWRNRFGSAGFAAAHIGSNAFKQASMLLALFNGGEGYRVEESDGCLMLGWHTRPLIATSAWKLSTN
partner: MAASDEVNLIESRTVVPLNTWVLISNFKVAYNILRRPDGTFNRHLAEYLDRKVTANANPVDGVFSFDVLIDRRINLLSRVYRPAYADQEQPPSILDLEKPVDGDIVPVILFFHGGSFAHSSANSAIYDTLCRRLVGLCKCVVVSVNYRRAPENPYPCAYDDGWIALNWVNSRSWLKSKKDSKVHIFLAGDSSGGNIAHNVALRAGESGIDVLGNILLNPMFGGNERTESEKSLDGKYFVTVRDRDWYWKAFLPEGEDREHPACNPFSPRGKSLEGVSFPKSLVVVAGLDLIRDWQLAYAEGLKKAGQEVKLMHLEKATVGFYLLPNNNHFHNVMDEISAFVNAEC

Variants of: B1
Conditions: with gid1a_arath GID1A

| Variant | effect of a mutation on the interaction |
| --- | --- |
| MKRDHHHHHHQDKKTMMMNEEDDGNGMDELLAVLGAKVRSSEAADVAQKLEQLEVMMSNVQEDDLSQLATETVHYNPAELYTWLDSMLTDLNPPSSNAEYDLKAIPGDAILNQFAIDSASSSNQGGGGDTYTTNKRLKCSNGVVETTTATAESTRHVVLVDSQENGVRLVHALLACAEAVQKENLTVAEALVKQIGFLAVSQIGAMRKVATYFAEALARRIYRLSPSQSPIDHSLSDTLQMHFYETCPYLKFAHFTANQAILEAFQGKKRVHVIDFSMSQGLQWPALMQALALRPGGPPVFRLTGIGPPAPDNFDYLHEVGCKLAHLAEAIHVEFEYRGFVANTLADLDASMLELRPSEIESVAVNSVFELHKLLGRPGAIDKVLGVVNQIKPEIFTVVEQESNHNSPIFLDRFTESLHYYSTLFDSLEGVPSGQDKVMSEVYLGKQICNVVACDGPDRVERHETLSQWRNRFGSAGFAAAHIGSNAFKQASMLLALFNGGEGYRVEESDGCLMLGWHTRPLIATSAWKLSTN [Y36A;M43A] | disrupting interaction |
| MKRDHHHHHHQDKKTMMMNEEDDGNGMDELLAVLGAKVRSSEMADVAQKLEQLEVMMSNVQEDDLSQLATETVHYNPAELYTWLDSMLTDLNPPSSNAEYDLKAIPGDAILNQFAIDSASSSNQGGGGDTYTTNKRLKCSNGVVETTTATAESTRHVVLVDSQENGVRLVHALLACAEAVQKENLTVAEALVKQIGFLAVSQIGAMRKVATYFAEALARRIYRLSPSQSPIDHSLSDTLQMHFYETCPYLKFAHFTANQAILEAFQGKKRVHVIDFSMSQGLQWPALMQALALRPGGPPVFRLTGIGPPAPDNFDYLHEVGCKLAHLAEAIHVEFEYRGFVANTLADLDASMLELRPSEIESVAVNSVFELHKLLGRPGAIDKVLGVVNQIKPEIFTVVEQESNHNSPIFLDRFTESLHYYSTLFDSLEGVPSGQDKVMSEVYLGKQICNVVACDGPDRVERHETLSQWRNRFGSAGFAAAHIGSNAFKQASMLLALFNGGEGYRVEESDGCLMLGWHTRPLIATSAWKLSTN [Y36A] | decreasing interaction |
| MKRDHHHHHHQDKKTMMMNEEDDGNGMDELAAVLGYKARSSEMADVAQKLEQLEVMMSNVQEDDLSQLATETVHYNPAELYTWLDSMLTDLNPPSSNAEYDLKAIPGDAILNQFAIDSASSSNQGGGGDTYTTNKRLKCSNGVVETTTATAESTRHVVLVDSQENGVRLVHALLACAEAVQKENLTVAEALVKQIGFLAVSQIGAMRKVATYFAEALARRIYRLSPSQSPIDHSLSDTLQMHFYETCPYLKFAHFTANQAILEAFQGKKRVHVIDFSMSQGLQWPALMQALALRPGGPPVFRLTGIGPPAPDNFDYLHEVGCKLAHLAEAIHVEFEYRGFVANTLADLDASMLELRPSEIESVAVNSVFELHKLLGRPGAIDKVLGVVNQIKPEIFTVVEQESNHNSPIFLDRFTESLHYYSTLFDSLEGVPSGQDKVMSEVYLGKQICNVVACDGPDRVERHETLSQWRNRFGSAGFAAAHIGSNAFKQASMLLALFNGGEGYRVEESDGCLMLGWHTRPLIATSAWKLSTN [L31A;V38A] | disrupting interaction |
| MKRDHHHHHHQDKKTMMMNEEDDGNGMDELLAVLGYKVRSSEMADVAQKLRQLRVMMSNVQEDDLSQLATETVHYNPAELYTWLDSMLTDLNPPSSNAEYDLKAIPGDAILNQFAIDSASSSNQGGGGDTYTTNKRLKCSNGVVETTTATAESTRHVVLVDSQENGVRLVHALLACAEAVQKENLTVAEALVKQIGFLAVSQIGAMRKVATYFAEALARRIYRLSPSQSPIDHSLSDTLQMHFYETCPYLKFAHFTANQAILEAFQGKKRVHVIDFSMSQGLQWPALMQALALRPGGPPVFRLTGIGPPAPDNFDYLHEVGCKLAHLAEAIHVEFEYRGFVANTLADLDASMLELRPSEIESVAVNSVFELHKLLGRPGAIDKVLGVVNQIKPEIFTVVEQESNHNSPIFLDRFTESLHYYSTLFDSLEGVPSGQDKVMSEVYLGKQICNVVACDGPDRVERHETLSQWRNRFGSAGFAAAHIGSNAFKQASMLLALFNGGEGYRVEESDGCLMLGWHTRPLIATSAWKLSTN [E51R;E54R] | disrupting interaction |
